{"source": "paper PMC5401896", "about": "(2017)", "binders": {"B1": {"name": "Rituximab (antibody, V domains shown)", "VH": "QVQLQQPGAELVKPGASVKMSCKASGYTFTSYNMHWVKQTPGRGLEWIGAIYPGNGDTSYNQKFKGKATLTADKSSSTAYMQLSSLTSEDSAVYYCARSTYYGGDWYFNVWGAGTTVTVSA", "VL": "QIVLSQSPAILSASPGEKVTMTCRASSSVSYIHWFQQKPGSSPKPWIYATSNLASGVPVRFSGSGSGTSYSLTISRVEAEDAATYYCQQWTSNPPTFGGGTKLEIK"}}, "key": {"CD20 [1]": {"target": "T1, CD20 (Homo sapiens, UniProt P11836)", "T1 chain": "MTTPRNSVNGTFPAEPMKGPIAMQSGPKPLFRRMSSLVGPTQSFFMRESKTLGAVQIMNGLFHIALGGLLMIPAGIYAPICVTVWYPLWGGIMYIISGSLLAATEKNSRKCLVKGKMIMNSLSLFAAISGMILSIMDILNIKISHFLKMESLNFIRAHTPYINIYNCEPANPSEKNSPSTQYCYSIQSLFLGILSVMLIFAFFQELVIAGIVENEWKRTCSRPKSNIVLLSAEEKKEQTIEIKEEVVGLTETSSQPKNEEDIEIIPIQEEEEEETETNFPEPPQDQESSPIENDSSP", "test": "real-time cell binding (bivalent, Daudi)"}, "CD20 [2]": {"target": "T1, CD20", "test": "real-time cell binding (one-to-two, Daudi)"}, "CD20 [3]": {"target": "T1, CD20", "test": "real-time cell binding (one-to-one, Ramos)"}}}
{"binder": "B1", "values": [{"measurement": "Kd", "setting": "CD20 [1]", "result": 7.8, "unit": "nM"}, {"measurement": "Kd", "setting": "CD20 [2]", "result": 0.2, "unit": "nM"}, {"measurement": "Kd", "setting": "CD20 [3]", "result": 0.7, "unit": "nM"}]}
